This data set is described as follows: soluble on expression in E. coli; label from the status in PepcDB or PDB records.
As for “MRSSKSPFKRKSHSRETSHDENTSFFHKRTISGSSAHHSRNVSQGAVPSSAPPVSGGNYSHKRNVSRASNSSQTSNFLAEQYERDRKAIINCCFSRPDHKTGEPPNNYITHVRIIEDSKFPSSRPPPDSKLENKKKRLLILSAKPNNAKLIQIHKARENSDGSFQIGRTWQLTELVRVEKDLEISEGFILTMSKKYYWETNSAKERTVFIKSLITLYIQTFEGHVPELVNWDLSLFYLDERSYQRAVITNRPGSVSPIKSPTSNFTTNTTQSVGSVPFSAPTERTRRSETESVNPVSTPASVEYHAGMKSLNKAPYSSNS”, the “soluble on expression in E. coli” value is reported as “soluble”.

With “MRTFCILKDFKIFIIFFLQNPCGGEGLNILERIAKEVQEETKVRLHARNVERVLQALLKTGDFWKIVDYSDLPVPAASGIIKKFLDEGIVFIDENENILFTQKGLDLVKELGIEPFEEHKCRACEGRGIPFYDDKELYRTFVEIAKDRPKPVQQYDQGSVTPETTVSRVLFLDSRGDLRGKEIIVMGAEDDLTGLAIALTRKAKRVLIIDIDERLIDFDNRIIKELGIDNAEAMVWDLRNPYTEDFLGKFDVFITDPPETFAAFRAFIGRGIATLKDAGCAGYFGLTLRDSSIFRWKEFQEILINEYGVVITDIIQDFNDYMNWEYHPETRAAQIAPVKKNPTDIWYRSAWYRIETLPGFKRWNEPISDEVFYLDEEGSTT”, the “soluble on expression in E. coli” value is “not soluble”.

“MRTGKAWVWQLRRAAERTRRPFAGDNSPTFTVEHTHRMYPCHVFCNPLIGTIQMKACSRSERREGSKKMEAAKASKPDVSAVYAVDLSQRPVSQGDAAREKAALLQLARRMHEAPGEMLRRFVELAMELTGGISAGISLLEETEPPPVFRWHHLKGILSPFNGATTPRDFSPCGITLDRSAPTLTIHPERVYDWIPPGLFLPEVLLVPLYIGRTEPLGTLWIVADRIEHFHCGHAATMQELAGFIGIALKMVRSEEELQQALEQQELLTREMGHRLKNLFTILDSMVRISARSTDNKDDLVALLSGRLHALAAAHSLVKPSFSDVQGAASSLAELLSIVLEPHEQPAISGKRRLSLTGPTVLCGEQSVNGLALVFHELATNAAKYGSLCGDLGTVDVVWQIDGDDLGITWREDGGAQATSSSPASKGFGSTLVEATVIRQFGGTLSYDWRSTGLSVHIVIPLCRLAQ”: the “soluble on expression in E. coli” value was “not soluble”.

On to “MRTIEFQAKQLLMEKLDKNLLDHAKSLTDGNGPQIVDVYGLQQLAEVHCYLKTTHQFDPAEVEALLQFADPLEAACHCWEMNTHEYSFPICDLLRETRARELFELAKPEPPAKLSVREQLRAAVKEARQNLAPEERTKGGEAR”, for which the “soluble on expression in E. coli” value is given as “not soluble”.

Take “MRTVDFTPLYRNAIGFDRLLNMMENSAAKNAQGGYPPYNIEQKEDNQYRITMAVAGFGDEEIDITQQENTLIVRGERKPEESKNYIYQGIAERDFERKFQLADYVKVTGATMEHGLLHIDLEREIPEAMQPRKIAINGKHLLENK”: the “soluble on expression in E. coli” value was “not soluble”.

With “MRVAIALAKDDATRVYPGPFGHAPRYAIYEAGPSGELVLLEIRENPYAKAHGEEKHAKMRELLRDVDLKVGARFGHKGSLGAFPLADRVEVGPVSLEEALARLKERSSA”, the “soluble on expression in E. coli” value is recorded as “soluble”.

Regarding “MRVDRRTFLKATGAALGALALSGLPARAQGLEGEDLEHLEQALKEVFGKGFKDLTPSDAVKLNMPAIAESGANVPAEVEVALPKEQVKAIHLFADKNPTPHILAFMPMKAEPYYATRVRLAETTAIRAVVETQDGKLLLASASTRVTVGGCG”, the “soluble on expression in E. coli” value is recorded as “soluble”.

Regarding “MRVFKTILLVVLMTLSQAMVAQTSPIPMLERAANQIISILKENKARLKSNPEIIYKAVEENLLPNVDVAGMSRSVLGRQAWSKATEAERVEFSKAFTRLVIRTYSSPLAQYSDETVQFLPLRGSLNSRFIRVNSVIVRSAGQNIPLSYSLVSKNGKWKIYDISVEGVSLLQSFRSQFAQALQHSSISQVIKEMQQKQIKKASLEHHHHHH”, the “soluble on expression in E. coli” value is given as “not soluble”.

Take “MRVGQHTLQFANPPVIVATASVVGPKEGEGPLGDTFDMVIDDSYFGEETWEKAERKMLEEAVKMVIAKAQLKPQDIDFLLAGDLLNQTISANYAARSLGIPFLGLYGACSTMYEGMALAAMLIDGGFAHHVVAACSSHYDTAERQYRFPTEQGIQRPPTAQWTVTGAGAVLMAPVGNGPRITHATIGRVLDVGIKDPNDMGSAMAPAAVDTIVRHFQDTGRGPIDYDLIITGDLGRVGHEIATKLLGEKKYDVSKNYSDCGILIYDHERQDTHAGGSGCACSAVVFAGHLMGKLNEGRYKRILGVGTGALLSTTATQQGESIPGIGHGVVIEGLEHHHHHH”: the “soluble on expression in E. coli” value is listed as “not soluble”.

For the origin of these results see the DeepSol protein solubility set.
